Biological target: human GLP-1 receptor (human) (UniProt P43220)

Row | Substance | GLP1cAMPma (3693) [EC50 (nM)] Mean Value [nM]
1 | N-ε^27-(2-(2-(2-(2-(2-(2-(17-carboxyheptadecanoylamino-4(S)- carboxybutyrylamino])ethoxy)ethoxy)acetylamino)ethoxy)ethoxy) acetyl)[Leu^14,Arg^12,Lys^27]Exendin-4(1-39)amide (from UniProt P26349) (peptide) | 0.52
2 | N-ε^27-[2-(2-[2-(2-[2-(2-[4-hexadecanoylamino-4(S)- carboxybutyrylamino]ethoxy)ethoxy]acetylamino)ethoxy]ethoxy)acetyl] [Arg^12,Leu^14,Lys^27,Ala^29]Exendin-4-(1-39)-amide (from UniProt P26349) (peptide) | 0.15
3 | N-ε^27-[2-(2-[2-(2-[2-(2-[4-hexadecanoylamino-4(S)- carboxybutyrylamino]ethoxy)ethoxy]acetylamino)ethoxy]ethoxy)acetyl] [Arg^12,Leu^14,Lys^27]Exendin-4(1-39)amide (from UniProt P26349) (peptide) | 0.007
4 | N-ε^27-{2-(2-(2-(2-[2-(2-(4-(hexadecanoylamino)-4(S)- carboxybutyrylamino)ethoxy)ethoxy)acetylamino)ethoxy)ethoxy)acetyl} [Leu^14,28,Lys^27]Exendin-4(1-39)amide (from UniProt P26349) (peptide) | 0.19
5 | N-ε^27-{2-(2-(2-(2-[2-(2-(4-(hexadecanoylamino)-4(S)- carboxybutyrylamino)ethoxy)ethoxy]acetylamino)ethoxy)ethoxy) acetyl)}[Gln^12,Leu^14,28,Lys^27]Exendin-4(1-39)amide (from UniProt P26349) (peptide) | 0.041
6 | N-ε^28-(2-(2-(2-(2-(2-(2-(2-(2-(2- (Octadecanoylamino)ethoxy)ethoxy)acetylamino)ethoxy)ethoxy)acetyl- amino)ethoxy)ethoxy)acetyl))[Arg^12,Leu^14,Val^27,Lys^28 Exendin-4(1- 39)amide (from UniProt P26349) (peptide) | 0.025
7 | N-ε^28-(2-(2-(2-(2-(2-(2-(2-(2-(2- (Octadecanoylamino)ethoxy)ethoxy)acetylamino)ethoxy)ethoxy)acetyl- amino)ethoxy)ethoxy)acetyl))[Arg^12,Val^27,Lys^28]Exendin-4(1-39)amide (from UniProt P26349) (peptide) | 0.041
8 | N-ε^28-[2-(2-[2-(2-[2-(2-[4-hexadecanoylamino-4(S)- carboxybutyrylamino]ethoxy)ethoxy]acetylamino)ethoxy]ethoxy)acetyl] [alfa-Me-Phe^6,Arg^12,Val^27,Lys^28,Ala^29]Exendin-4-(1-39)-amide (from UniProt P26349) (peptide) | 0.052
9 | N-ε^28-{2-(2-(2-(2-[2-(2-(4-(hexadecanoylamino)-4- carboxybutyrylamino)ethoxy)ethoxy]acetylamino)ethoxy)ethoxy) acetyl)}-[Leu^14,Lys^20]Exendin-4-amide (from UniProt P26349) (peptide) | 0.011
10 | N-ε^32-(2-(2-(2-(2-(2-(2-(2-(2-(2- (Octadecanoylamino)ethoxy)ethoxy)acetylamino)ethoxy)ethoxy)acetyl- amino)ethoxy)ethoxy)acetyl))[Arg^12,Leu^14,Val^27,Arg^28,Lys^32]Exendin-4 (1-39)amide (from UniProt P26349) (peptide) | 0.027
11 | N-ε^32-(2-(2-(2-(2-(2-(2-(4-(Octadecanoylamino)-4(S)- carboxybutyrylamino))ethoxy)ethoxy)acetylamino)ethoxy) ethoxy)acetyl[Arg^12,Leu^14,Val^27,Arg^28,Lys^32]Exendin-4-(1-39)amide (from UniProt P26349) (peptide) | 0.025
12 | N-ε^32-[2-(2-[2-(2-[2-(2-[2-(2-[2- (Eicosanoylamino)ethoxy]ethoxy)acetylamino]ethoxy)ethoxy] acetylamino)ethoxy]ethoxy)acetyl][Arg^12,28,Leu^14,Val^27,Lys^32] Exendin-4-(1-39)amide (from UniProt P26349) (peptide) | 0.27
13 | N-ε^34-(2-(2-(2-(16-tetrazoylhexadecanoylamino-4(S)- carboxybutyrylamino)ethoxy)ethoxy(acetyl)[Leu^14,Arg^12,27, Lys^34]Exendin-4(1-39)amide (from UniProt P26349) (peptide) | 0.61
14 | N-ε^34-(2-(2-(2-(17-carboxyheptadecanoylamino)ethoxy)ethoxy)acetyl) [Leu^14,Arg^12,27,Lys^34]Exendin-4(1-39)amide (from UniProt P26349) (peptide) | 0.44
15 | N-ε^34-[2-(2-[2-(2-[2-(2-[4-hexadecanoylamino-4(S)- carboxybutyrylamino]ethoxy)ethoxy]acetylamino)ethoxy]ethoxy)acetyl] [Arg^12,27,Leu^14,Lys^34]Exendin-4(1-39)amide (from UniProt P26349) (peptide) | 0.018
16 | N-ε^34-[2-(2-[2-[4-hexadecanoylamino-4(S)- carboxybutyrylamino]ethoxy]ethoxy)acetyl][Arg^12,27,Leu^14,Lys^34] Exendin-4(1-39)amide (from UniProt P26349) (peptide) | 0.012

From patent publication US9012398B2
